Laboratory results: US20220226495A1
Read-outs that look alike come from different tables or passages of the source.

Columns and labels:
[1] = target: T1, MPER binding peptide (Acetyl-[…]-Ttds-Lys-(Biotin)-NH2) (HIV-1)
[2] = target: T1, MPER binding peptide …; remark: listed apart in the source
[3] = target: HIV-1 Env of 20 pseudotyped viruses representing 10 different HIV-1 clades; test: cell-based or functional assay
[4] = target: HIV-1 Env of 20 pseudotyped viruses representing 10 different HIV-1 clades; test: cell-based or functional assay; remark: listed apart in the source

Binder | Ka [1] [M⁻¹] | Kd [1] [nM] | koff [1] [s⁻¹] | kon [1] [M⁻¹ s⁻¹] | fold higher affinity than the MPER antibody [2] [fold] | % VS Neutralized IC80 <1 µg/mL [3] [%] | % VS Neutralized IC80 <50 µg/mL [3] [%] | Geometric Mean [3] [µg/mL] | Median IC80 [3] [µg/mL] | Total VS Neutralized IC80 <1 µg/mL (viruses of 20) [3] | Total VS Neutralized IC80 <50 µg/mL (viruses of 20) [3] | % VS Neutralized IC80 <1 µg/mL [4] [%] | % VS Neutralized IC80 <50 µg/mL [4] [%] | Geometric Mean [4] [µg/mL] | Median IC80 [4] [µg/mL] | Total VS Neutralized IC80 <1 µg/mL (viruses of 20) [4] | Total VS Neutralized IC80 <50 µg/mL (viruses of 20) [4]
Binding Protein 2 (protein) heavy 1: RAHLVQSGTAMKKPGASVRVSCQTSGYTFTAHILFWFRQAPGRGLEWVGWIKPQYGAVNFGGGFRDRVTLTRDVYREIAYMDIRGLKPDDTAVYYCARDRSYGDSSWALDAWGQGTTVVVSAASTKGPSVFPLAPSSKSTSGGTAALGCLVKDYFPEPVTVSWNSGALTSGVHTFPAVLQSSGLYSLSSVVTVPSSSLGTQTYICNVNHKPSNTKVDKKVEPKSCDKTHTCPPCPAPELLGGPSVFLFPPKPKDTLMISRTPEVTCVVVDVSHEDPEVKFNWYVDGVEVHNAKTKPREEQYNSTYRVVSVLTVLHQDWLNGKEYKCKVSNKALPAPIEKTISKAKGQPREPQVCTLPPSRDELTKNQVSLSCAVKGFYPSDIAVEWESNGQPENNYKTTPPVLDSDGSFFLVSKLTVDKSRWQQGNVFSCSVLHEALHSHYTQKSLSLSPG light 1: YIHVTQSPSSLSVSIGDRVTINCQTSQGVGSDLHWYQHKPGRAPKLLIHHTSSVEDGVPSRFSGSGFHTSFNLTISDLQADDIATYYCQVLQFFGRGSRLHIKRTVAAPSVFIFPPSDEQLKSGTASVVCLLNNFYPREAKVQWKVDNALQSGNSQESVTEQDSKDSTYSLSSTLTLSKADYEKHKVYACEVTHQGLSSPVTKSFNRGEC heavy 2: EVRLVESGGGLVKPGGSLRLSCSASGFDFDNAWMTWVRQPPGKGLEWVGRITGPGEGWSVDYAESVKGRFTISRDNTKNTLYLEMNNVRTEDTGYYFCARTGKYYDFWSGYPPGEEYFQDWGQGTLVIVSSDKTHTQVHLTQSGPEVRKPGTSVKVSCKAPGNTLKTYDLHWVRSVPGQGLQWMGWISHEGDKKVIVERFKAKVTIDWDRSTNTAYLQLSGLTSGDTAVYYCAKGSKHRLRDYALYDDDGALNWAVDVDYLSNLEFWGQGTAVTVSSDKTHTASTKGPSVFPLAPSSKSTSGGTAALGCLVKDYFPEPVTVSWNSGALTSGVHTFPAVLQSSGLYSLSSVVTVPSSSLGTQTYICNVNHKPSNTKVDKKVEPKSCDKTHTCPPCPAPELLGGPSVFLFPPKPKDTLMISRTPEVTCVVVDVSHEDPEVKFNWYVDGVEVHNAKTKPREEQYNSTYRVVSVLTVLHQDWLNGKEYKCKVSNKALPAPIEKTISKAKGQPREPQVYTLPPCRDELTKNQVSLWCLVKGFYPSDIAVEWESNGQPENNYKTTPPVLDSDGSFFLYSKLTVDKSRWQQGNVFSCSVLHEALHSHYTQKSLSLSPG light 2: DFVLTQSPHSLSVTPGESASISCKSSHSLIHGDRNNYLAWYVQKPGRSPQLLIYLASSRASGVPDRFSGSGSDKDFTLKISRVETEDVGTYYCMQGRESPWTFGQGTKVDIKDKTHTASELTQDPAVSVALKQTVTITCRGDSLRSHYASWYQKKPGQAPVLLFYGKNNRPSGIPDRFSGSASGNRASLTITGAQAEDEADYYCSSRDKSGSRLSVFGGGTKLTVLDKTHTRTVAAPSVFIFPPSDEQLKSGTASVVCLLNNFYPREAKVQWKVDNALQSGNSQESVTEQDSKDSTYSLSSTLTLSKADYEKHKVYACEVTHQGLSSPVTKSFNRGEC | 1.65e+08 | 6.05 | 0.000697 | 115000 | 3.1 | 65 | 90 | 0.222 | 0.375 | 13 | 18 |  |  |  |  |  | 
Binding Protein 3 (protein) heavy 1: RAHLVQSGTAMKKPGASVRVSCQTSGYTFTAHILFWFRQAPGRGLEWVGWIKPQYGAVNFGGGFRDRVTLTRDVYREIAYMDIRGLKPDDTAVYYCARDRSYGDSSWALDAWGQGTTVVVSAASTKGPSVFPLAPSSKSTSGGTAALGCLVKDYFPEPVTVSWNSGALTSGVHTFPAVLQSSGLYSLSSVVTVPSSSLGTQTYICNVNHKPSNTKVDKKVEPKSCDKTHTCPPCPAPELLGGPSVFLFPPKPKDTLMISRTPEVTCVVVDVSHEDPEVKFNWYVDGVEVHNAKTKPREEQYNSTYRVVSVLTVLHQDWLNGKEYKCKVSNKALPAPIEKTISKAKGQPREPQVCTLPPSRDELTKNQVSLSCAVKGFYPSDIAVEWESNGQPENNYKTTPPVLDSDGSFFLVSKLTVDKSRWQQGNVFSCSVLHEALHSHYTQKSLSLSPG light 1: YIHVTQSPSSLSVSIGDRVTINCQTSQGVGSDLHWYQHKPGRAPKLLIHHTSSVEDGVPSRFSGSGFHTSFNLTISDLQADDIATYYCQVLQFFGRGSRLHIKRTVAAPSVFIFPPSDEQLKSGTASVVCLLNNFYPREAKVQWKVDNALQSGNSQESVTEQDSKDSTYSLSSTLTLSKADYEKHKVYACEVTHQGLSSPVTKSFNRGEC heavy 2: QVHLTQSGPEVRKPGTSVKVSCKAPGNTLKTYDLHWVRSVPGQGLQWMGWISHEGDKKVIVERFKAKVTIDWDRSTNTAYLQLSGLTSGDTAVYYCAKGSKHRLRDYALYDDDGALNWAVDVDYLSNLEFWGQGTAVTVSSDKTHTEVRLVESGGGLVKPGGSLRLSCSASGFDFDNAWMTWVRQPPGKGLEWVGRITGPGEGWSVDYAESVKGRFTISRDNTKNTLYLEMNNVRTEDTGYYFCARTGKYYDFWSGYPPGEEYFQDWGQGTLVIVSSDKTHTASTKGPSVFPLAPSSKSTSGGTAALGCLVKDYFPEPVTVSWNSGALTSGVHTFPAVLQSSGLYSLSSVVTVPSSSLGTQTYICNVNHKPSNTKVDKKVEPKSCDKTHTCPPCPAPELLGGPSVFLFPPKPKDTLMISRTPEVTCVVVDVSHEDPEVKFNWYVDGVEVHNAKTKPREEQYNSTYRVVSVLTVLHQDWLNGKEYKCKVSNKALPAPIEKTISKAKGQPREPQVYTLPPCRDELTKNQVSLWCLVKGFYPSDIAVEWESNGQPENNYKTTPPVLDSDGSFFLYSKLTVDKSRWQQGNVFSCSVLHEALHSHYTQKSLSLSPG light 2: ASELTQDPAVSVALKQTVTITCRGDSLRSHYASWYQKKPGQAPVLLFYGKNNRPSGIPDRFSGSASGNRASLTITGAQAEDEADYYCSSRDKSGSRLSVFGGGTKLTVLDKTHTDFVLTQSPHSLSVTPGESASISCKSSHSLIHGDRNNYLAWYVQKPGRSPQLLIYLASSRASGVPDRFSGSGSDKDFTLKISRVETEDVGTYYCMQGRESPWTFGQGTKVDIKDKTHTRTVAAPSVFIFPPSDEQLKSGTASVVCLLNNFYPREAKVQWKVDNALQSGNSQESVTEQDSKDSTYSLSSTLTLSKADYEKHKVYACEVTHQGLSSPVTKSFNRGEC | 6e+07 | 16.7 | 0.000779 | 46700 |  | 60 | 90 | 0.287 | 0.469 | 12 | 18 |  |  |  |  |  | 
V1/V2 directed Ab “b” (antibody, V domains shown) VH: QVQLVESGGGVVQPGTSLRLSCAASQFRFDGYGMHWVRQAPGKGLEWVASISHDGIKKYHAEKVWGRFTISRDNSKNTLYLQMNSLRPEDTALYYCAKDLREDECEEWWSDYYDFGKQLPCAKSRGGLVGIADNWGQGTMVTVSS VL: QSVLTQPPSVSAAPGQKVTISCSGNTSNIGNNFVSWYQQRPGRAPQLLIYETDKRPSGIPDRFSASKSGTSGTLAITGLQTGDEADYYCATWAASLSSARVFGTGTKVIVL |  |  |  |  |  |  |  |  |  |  |  | 45 | 45 | 0.039 | 0.051 | 9 | 9
V1/V2 directed Ab “a” (antibody, V domains shown) VH: QVHLTQSGPEVRKPGTSVKVSCKAPGNTLKTYDLHWVRSVPGQGLQWMGWISHEGDKKVIVERFKAKVTIDWDRSTNTAYLQLSGLTSGDTAVYYCAKGSKHRLRDYALYDDDGALNWAVDVDYLSNLEFWGQGTAVTVSS VL: DFVLTQSPHSLSVTPGESASISCKSSHSLIHGDRNNYLAWYVQKPGRSPQLLIYLASSRASGVPDRFSGSGSDKDFTLKISRVETEDVGTYYCMQGRESPWTFGQGTKVDIK |  |  |  |  |  | 45 | 55 | 0.094 | 0.06 | 9 | 11 |  |  |  |  |  | 
